# Test results: paper PMC5009318, “Structural insights into the IgE mediated responses induced by the allergens Hev b 8 and Zea m 12 in their dimeric forms” (Scientific Reports, 2016)
# Values joined by “and” are separate entries in the source; they are usually repeats but may differ in a detail not shown here. Identical values can stand only once.
# Target: the molecule itself
# Assay: SEC; HiLoad 16/60 Superdex 75, 50 mM Tris-HCl pH 7.5; samples incubated 1 week at 4 °C and applied at 10 mg/mL; calibrated with myoglobin, alpha-chymotrypsin and BSA
protein,measurement,value
"recombinant profilin allergen rHev b 8 (isoform Hev b 8.0102) from Hevea brasiliensis (natural protein, Cloned in pET28c; The dimer is held by a disulfide bridge between Cys13 of both chains; also called monomeric rHev b 8; dimeric rHev b 8; source: E. coli Rosetta (DE3), purified (Ni-NTA, enterokinase cleavage, mono Q anion exchange; oligomers separated by SEC)) MSWQAYVDDHLMCEIEGNHLSAAAIIGQDGSVWAQSANFPQFKSEEITGIMSDFHEPGTLAPTGLYIGGTKYMVIQGEPGAVIRGKKGPGGVTVKKTNQALIIGIYDEPMTPGQCNMIVERLGDYLIDQGY",stoichiometry N,2 and 3 and 4
